# Experimental data reported in US20220033470A1.
# What was measured:
# [1] = biological target: human insulin receptor (human) (UniProt P06213); assay: SPR (Biacore), soluble sortilin 50-500 nM over immobilized human insulin receptor
# [2] = biological target: murine insulin receptor (murine) (UniProt P15208); assay: SPR (Biacore), soluble sortilin 50-500 nM over immobilized murine insulin receptor
# [3] = biological target: human insulin receptor (human) (UniProt P06213); assay: Surface plasmon resonance (Biacore); human insulin receptor immobilized (0.0609 pmol/mm^2), sortilin injected at 50-500 nM, CaHBS buffer
# [4] = biological target: murine insulin receptor (murine) (UniProt P15208); assay: Surface plasmon resonance (Biacore); murine insulin receptor (mIR) immobilized (0.0607 pmol/mm^2), sortilin injected at 50-500 nM, CaHBS buffer
substance,measurement,setting,value
Soluble sortilin (from UniProt Q99523 78-755) (receptor),Kd,[1],40 nM
same,Kd,[2],40 nM
same,Kd,[3],46 nM
same,Kd,[4],42 nM
